This is an account of results in PMC2733743.

Test [1] has as its target WT cortactin stably expressed in MTLn3 cells (endogenous cortactin knocked down) (rat). Nature of the test: FRET or BRET. (Bioluminescence resonance energy transfer reports proximity on the nanometre scale.)
The target of test [2] is endogenous cortactin of MTLn3 cells (rat (endogenous in MTLn3)) (UniProt Q66HL2). The experiment in a line: FRET or BRET.

WT cortactin stably expressed in MTLn3 cells (endogenous cortactin knocked down) (rat), sequence (Q66HL2 whole entry): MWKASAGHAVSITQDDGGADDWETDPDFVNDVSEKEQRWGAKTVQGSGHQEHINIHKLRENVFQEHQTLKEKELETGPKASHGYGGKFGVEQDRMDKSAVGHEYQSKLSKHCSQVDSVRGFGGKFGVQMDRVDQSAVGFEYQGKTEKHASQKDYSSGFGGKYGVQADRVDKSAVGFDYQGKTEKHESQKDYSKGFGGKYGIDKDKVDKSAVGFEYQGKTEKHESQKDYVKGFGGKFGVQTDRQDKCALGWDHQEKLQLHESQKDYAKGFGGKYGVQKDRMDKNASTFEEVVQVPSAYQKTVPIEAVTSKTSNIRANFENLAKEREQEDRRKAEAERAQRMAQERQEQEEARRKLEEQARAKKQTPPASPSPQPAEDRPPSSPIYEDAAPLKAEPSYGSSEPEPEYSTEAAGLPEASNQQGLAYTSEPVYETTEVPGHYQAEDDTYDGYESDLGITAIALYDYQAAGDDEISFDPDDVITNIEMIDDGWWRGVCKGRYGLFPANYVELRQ

Take “endogenous cofilin of MTLn3 cells (from UniProt P45592 1-166) (natural protein)”: the FRET efficiency amounted to 4.2% in test [1] and 11.8% in test [2].
